Reference: US6423680B1, “Inhibitor of platelet activating factor” (HSC Research and Development Limited Partnership, priority 1998, dated 2002)

What was measured:
β-hexosaminidase A = biological target: T1, β-hexosaminidase A (Homo sapiens, UniProt P06865+P07686); assay: Conventional biological assay: co-factor for hydrolysis of GM2 ganglioside by β-hexosaminidase A; type: biochemical
T1 sequence (P06865 89-529): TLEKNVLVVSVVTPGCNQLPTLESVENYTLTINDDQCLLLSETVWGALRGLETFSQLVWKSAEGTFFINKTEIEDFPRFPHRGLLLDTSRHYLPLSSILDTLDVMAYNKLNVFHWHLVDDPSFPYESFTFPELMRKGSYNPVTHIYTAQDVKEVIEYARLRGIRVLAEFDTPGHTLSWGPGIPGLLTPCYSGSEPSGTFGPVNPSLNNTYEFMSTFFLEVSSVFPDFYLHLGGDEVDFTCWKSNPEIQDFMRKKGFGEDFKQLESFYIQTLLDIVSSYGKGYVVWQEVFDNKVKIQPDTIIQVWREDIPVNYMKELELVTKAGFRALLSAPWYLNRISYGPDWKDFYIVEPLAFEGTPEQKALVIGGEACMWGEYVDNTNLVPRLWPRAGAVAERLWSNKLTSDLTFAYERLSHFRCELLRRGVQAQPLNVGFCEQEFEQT
T1 sequence (P07686 122-556): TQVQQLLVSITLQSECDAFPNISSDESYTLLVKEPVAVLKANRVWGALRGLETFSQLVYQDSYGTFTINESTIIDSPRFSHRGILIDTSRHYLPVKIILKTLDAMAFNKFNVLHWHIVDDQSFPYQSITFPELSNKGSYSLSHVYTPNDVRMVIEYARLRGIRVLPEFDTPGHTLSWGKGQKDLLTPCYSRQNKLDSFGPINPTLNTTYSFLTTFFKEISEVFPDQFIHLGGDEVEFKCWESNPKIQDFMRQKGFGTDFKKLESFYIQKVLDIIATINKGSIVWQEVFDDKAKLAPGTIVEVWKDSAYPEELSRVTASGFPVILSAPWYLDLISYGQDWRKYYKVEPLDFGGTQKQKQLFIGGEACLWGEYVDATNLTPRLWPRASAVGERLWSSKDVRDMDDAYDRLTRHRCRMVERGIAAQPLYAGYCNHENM
T1 sequence (P17900 32-193 partner): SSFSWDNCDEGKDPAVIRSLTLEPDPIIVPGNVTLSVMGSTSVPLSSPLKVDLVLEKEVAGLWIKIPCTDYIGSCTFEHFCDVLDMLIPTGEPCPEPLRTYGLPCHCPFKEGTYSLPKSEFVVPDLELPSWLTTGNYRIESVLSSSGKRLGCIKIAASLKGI
Text: The conventional biological assay for the GM2 activator involves its function as a substrate specific co-factor for the hydrolysis of GM2 ganglioside by β-hexosaminidase A. This assay (described in detail in Meier et al., J. Biol. Chem., 266:1879-1887, 1991) requires that the activator has a functional hydrophobic binding site.

PAF = assay: Calcium release assay in INDO-1 AM-loaded neutrophils; type: cell-based, human
Experimental: Neutrophils were isolated from heparinized venous blood collected from healthy volunteers as previously reported (Laneuville et al., Biochem. J. 295:393-397, 1993). Neutrophils (1 ml, 10^7 cells) were loaded with a […] solution of a fluorescent dye, INDO-1 AM (Calbiochem.) for use in calculating [Ca^2+]i as previously reported (Laneuville et al., supra; Reynaud and Pace-Asciak, Prostaglandins Leukot. Essent. Fatty Acids 56:9-12,1997). For each measurement, 2×10^6 cells were used in 1 ml of cell medium in a temperature-controlled (37° C.) plastic cuvette with continuous stirring. Varying concentrations of functional GM2 activator protein and non-functional truncated GM2 activator protein (i.e. 0, 0.32 and 0.8 nmol) were added to individual cuvettes. Following equilibration of the assay mix, PAF (0.002 nmol) was added and the increase in [Ca^2+]i calculated by a determination of fluorescence. Fluorescence was measured using a Perkin-Elmer fluorescence spectrophotometer as previously reported (Reynaud and Pace-Asciak, supra).
The PAF-response was inhibited by 75% when 800 pmol (15 μg/ml) of activator was present, but not at all in the presence of 800 pmol of the non-functional truncated activator.

GM2 activator protein = biological target: T2, GM2 activator protein (Homo sapiens, UniProt P17900); assay: Fluorescence dequenching assay (R-18 transport between liposomes; ligand binding)
T2 construct: ID NO; His6 (N); made in house
T2 sequence (P17900 32-193): T1 sequence (P17900 32-193 partner)
Experimental: The ability of the activator protein to bind GM2 ganglioside, PAF, N-formyl-Met-Leu-Phe (fMLP), or leukotriene B4 (LTB4) was assessed using a fluorescence dequenching assay. This assay was first used to evaluate the ability of the activator to transport a self-quenching fluorescence dye, R-18 (octadecylrhodamine conjugated to a saturated C-18 hydrocarbon chain) (obtained from Molecular Probes), between labeled and unlabeled liposomes (phosphatidylcholine containing large unilamellar vesicles, PC-LUV8). An increase in fluorescence over time when the activator protein and unlabeled liposomes were admixed with R-18 labeled liposomes indicates the ability of the activator to transport the R-18 dye, the fluorescence of which is proportional to concentration of dye that is transported to the unlabelled liposomes. […]
The R-18 labeled liposomes were prepared as follows. […] The column was then eluted with NHE buffer to yield a quantity of labeled liposomes sufficient for 10 assays.
In each fluorescence dequenching assay, 5 μg of activator protein was mixed with 630 nmol of unlabeled liposomes. […] The rate of increase in fluorescence emission was then determined by monitoring at 590 nm, using an excitation wavelength of 560 nm, on a 650-40 fluorometer (Perkin-Elmer). […]
The fluorescence dequenching of the R-18 liposome preparations was measured and calculated as follows. […]

B1: functional activator: Non-glycosylated GM2 activator protein from His6-tag bacterial expression system, SEQ ID NO: 2 (protein)
chain: MRGSHHHHHHGSIEGRSSFSWDNCDEGKDPAVIRSLTLEPDPIVVPGNVTLSVVGSTSVPLSSPLKVDLVLEKEVAGLWIKIPCTDYIGSCTFEHFCDVLDMLIPTGEPCPEPLRTYGLPCHCPFKEGTYSLPKSEFVVPDLELPSWLTTGNYRIESVLSSSGKRLGCIKIAASLKGI
modifications: His6-tag; non-glycosylated; His tag at residues 1 to 17
specific activity as co-factor, compared with wild-type glycosylated precursor activator (CHO cells) (β-hexosaminidase A): functioned in a similar manner to the wildtype activator
inhibition of PAF-response (PAF; 800 pmol (15 μg/ml) of activator present, PAF 0.002 nmol): 75%
release of intracellular calcium pools into the cytosol after PAF (PAF; PAF added to cuvettes containing the functional activator): significant decrease
change in [Ca2+]i on addition of extracellular activator protein alone (PAF; added to suspension of INDO-1 AM-loaded cells, before PAF): did not result in a change in [Ca^2+]i
transport of R-18 between labeled and unlabeled liposomes (GM2 activator protein; 5 μg activator, 37° C., pH 5, increase in fluorescence over time): found to transport R-18
slope of fluorescence dequenching (GM2 activator protein; activator in the absence of a ligand compound): 0.256 ΔFu/ΔT(min)
